According to US20240139295A1 (priority 2021, published 2024):

B1: LysP53: lysin from the genome of bacteriophage P53, amino acid sequence SEQ ID NO: 2, includes P104, about 24 kDa, expressed in E. coli (protein)
chain: MTMTTKRIFEHMRPNLTDSQVQALYKLMEKGADLDTIAQFAGVSPLVSTADVKQPSGFKFSQTSLKRLEGVNPKLVQVVNRALEISKEDFMVIEGVRTKESAWANWGKGRTAAQCQAAGVPTKYAQPSLAKVTWLTDPLKSKHMTGHAVDLAPIPLDWNDLKRFDLMAQAMFQASAELNIPIRWGADWDNDGVFREKGETDSPHFELAG

Experiments:
[1] = test system: Gram-negative bacteria; assay: Activity comparison of P104 and LysP53 in vitro, overall; type: cell-based; settings: stable phase, 37° C., 1 h
Experimental: (§1) A variety of strains including Acinetobacter baumannii, Pseudomonas aeruginosa, Klebsiella pneumoniae and Escherichia coli are cultured to stable phase (OD600nm between 1.2-1.4), respectively, and each precipitate is collected by centrifugation at 4° C., rinsed once with Tris-HCl buffer, and then the rinsed precipitate is dissolved in Tris-HCl buffer to obtain the bacterial solution. At the same time, mixed solutions including the same amount of the buffer and the above bacterial solution are prepared and used as the negative controls. After incubation at 37° C. for 1 h, the number (CFU) of the bacteria in the solutions are counted by plating on agar plates.

[2] = test system: Escherichia coli; assay: Activity comparison of P104 and LysP53 in vitro (CFU plate count); type: cell-based; settings: stable phase, 37° C., 1 h
Experimental: as §1

[3] = test system: Pseudomonas aeruginosa; assay: as above; type: cell-based; settings: stable phase, 37° C., 1 h
Experimental: as §1

[4] = test system: Klebsiella pneumoniae; assay: as above; type: cell-based; settings: stable phase, 37° C., 1 h
Experimental: as §1

[5] = test system: Acinetobacter baumannii; assay: as above; type: cell-based; settings: stable phase, 37° C., 1 h
Experimental: as §1

[6] = test system: Gram-negative bacteria; assay: Lysis spectrum of LysP53 in vitro, overall; type: cell-based; settings: 100 μg/mL LysP53, stable phase, 37° C., 1 h
Experimental: (§2) A variety of strains including Acinetobacter baumannii, Pseudomonas aeruginosa, Klebsiella pneumoniae and Escherichia coli are cultured to stable phase (OD600nm between 1.2-1.4), respectively, and each precipitate is collected by centrifugation at 4° C., rinsed once with Tris-HCl buffer, and then the rinsed precipitate is dissolved in Tris-HCl buffer to obtain the bacterial solution. The lysin LysP53 prepared in the embodiment 2 is taken and mixed with the above bacterial solutions, respectively, to make the final concentration of the lysin LysP53 to be 100 μg/mL. At the same time, mixed solutions including the same amount of the buffer and each of the above bacterial solutions are prepared and used as negative controls. After incubation at 37° C. for 1 h, the number (CFU) of the bacteria in the solutions are counted by plating on agar plates.

[7] = test system: A. baumannii WHG40137; assay: Time dependence of lysin LysP53 lysing A. baumannii WHG40137 (CFU plate count); type: cell-based, Acinetobacter baumannii; settings: 100 μg/mL LysP53, logarithmic phase, 37° C.
Experimental: Acinetobacter baumannii (A. baumannii) WHG40137 is cultured to logarithmic phase (OD600nm between 0.4-0.6), and the precipitate is collected by low-temperature centrifugation, rinsed once with Tris-hydrochloride (Tris-HCl) buffer, and then the rinsed precipitate is dissolved in the buffer to obtain an A. baumannii WHG40137 bacterial solution. The lysin LysP53 prepared in the embodiment 2 is added in and mixed with the A. baumannii WHG40137 bacterial solution to make the final concentration of the lysin LysP53 to be 100 micrograms per milliliter (μg/mL). At the same time, a mixed solution including the same amount of the buffer and the above bacterial solution is prepared and used as negative control. During incubation of the solutions at 37° C., aliquots were sampled, respectively, at different times and used to count the number (colony-forming unit abbreviated as CFU) of the bacteria in the solutions by plating on agar plates.

[8] = test system: A. baumannii WHG40137; assay: Lytic activity of LysP53 against A. baumannii WHG40137 on burned skin surfaces of mice; type: in vivo, Acinetobacter baumannii; settings: female BALB/c mice, burn site infected 24 h, 14 μg LysP53 topical vs 4 grams (g) minocycline, 4 h after treatment
Experimental: Female BALB/c mice aged 6-8 weeks are anesthetized by intraperitoneal injection of 40 milligrams per kilogram (mg/kg) pentobarbital (also referred to as pentobarbitone), and then shaved with an electric razor to remove 2 square centimeters (cm 2) of hair on the back. Partial burn can be achieved by exposing the naked skin to water at 65° C. for 12 s. 10 μL, of A. baumannii WHG40137 with a concentration of 10^8 CFU/mL is taken and inoculated at the burn site, and after colonization for 24 h, the mice are randomly divided into three groups. In the first group, there are 12 mice, and 14 μg of the lysin LysP53 is applied to the burn site of each mouse. In the second group, there are 12 mice, and 4 grams (g) minocycline is applied to the burn site of each mouse. In the third group, there are 9 mice, and the same amount of buffer solution is applied to the burn site of each mouse. Four hours after treatment, the mice are euthanatized and the infected skin is excised, infiltrated with 1 mL of phosphate buffered saline with Tween® 20 (PBST) and 0.1% Triton X-100 for 2 min, and homogenized with a tissue cell disruptor (NewZongKe, Wuhan, China). Finally, an aliquot of the suspension is diluted and plated to an LB plate containing 4 μg/mL of gentamicin and 2 μg/mL of meropenem, and the number of the colonies are counted after overnight culture.

[9] = test system: A. baumannii WHG40137; assay: Effect of EDTA concentration on lytic activity of LysP53 against A. baumannii WHG40137 (CFU plate count); type: cell-based, Acinetobacter baumannii; settings: 100 μg/mL LysP53, stable phase, EDTA 0, 62.5, 125, 250, 500 μM, 37° C., 1 h
Experimental: A. baumannii WHG40137 is cultured to stable phase (OD600nm between 1.2-1.4), and the precipitate is collected by centrifugation at 4° C., rinsed once with a Tris-HCl buffer, and is dissolved in Tris-HCl buffer to obtain an A. baumannii WHG40137 bacterial solution. The lysin LysP53 prepared in the embodiment 2 is taken and mixed with the A. baumannii WHG40137 bacterial solution containing EDTA at different concentrations (0 μM, 62.5 μM, 125 μM, 250 μM, and 500 μM) to make the final concentration of the lysin LysP53 to be 100 μg/mL. At the same time, mixed solutions including the same amount of the Tris-HCl buffer solution and each of the above bacterial solutions are used as negative controls. After incubation at 37° C. for 1 h, the number (CFU) of the bacteria in the solutions are counted by plating on agar plates.

[10] = test system: A. baumannii WHG40137; assay: Effect of pH on lytic activity of LysP53 against A. baumannii WHG40137 (CFU plate count); type: cell-based, Acinetobacter baumannii; settings: 100 μg/mL LysP53, logarithmic phase, 1 h
Experimental: A. baumannii WHG40137 is cultured to logarithmic phase (OD600nm between 0.4-0.6) first. Then, the precipitates are collected by centrifugation at 4° C., rinsed once with Tris-HCl buffer, and dissolved in Tris-HCL buffer with different pH values (pH 5-8) to obtain A. baumannii WHG40137 bacterial solutions. Finally, the lysin LysP53 prepared in the embodiment 2 is taken and mixed with the A. baumannii WHG40137 bacterial solutions to make the final concentration of the lysin LysP53 to be 100 μg/mL. At the same time, mixed solutions including the same amount of the buffer and the above bacterial solution are prepared and used as the negative controls. After incubation at 37° C. for 1 h, the number (CFU) of the bacteria in the solutions are counted by plating on agar plates.

[11] = test system: Escherichia coli; assay: Lysis spectrum of LysP53 in vitro (CFU plate count); type: cell-based; settings: 100 μg/mL LysP53, stable phase, 37° C., 1 h
Experimental: as §2

[12] = test system: Pseudomonas aeruginosa; assay: as above; type: cell-based; settings: 100 μg/mL LysP53, stable phase, 37° C., 1 h
Experimental: as §2

[13] = test system: Klebsiella pneumoniae; assay: as above; type: cell-based; settings: 100 μg/mL LysP53, stable phase, 37° C., 1 h
Experimental: as §2

[14] = test system: Acinetobacter baumannii; assay: as above; type: cell-based; settings: 100 μg/mL LysP53, stable phase, 37° C., 1 h
Experimental: as §2

[15] = test system: A. baumannii WHG40137; assay: Lytic activity of LysP53 against A. baumannii WHG40137 at different growth periods (CFU plate count); type: cell-based, Acinetobacter baumannii; settings: 100 μg/mL LysP53, 37° C., 1 h; logarithmic phase (OD600 0.4-0.6) vs stable phase (OD600 1.2-1.4)
Experimental: A. baumannii WHG40137 is cultured to logarithmic phase (OD600nm between 0.4-0.6) or stable phase (OD600nm between 1.2-1.4) first. Then, the precipitates are collected by centrifugation at 4° C., rinsed once with Tris-HCl buffer, and dissolved in Tris-HCL buffer to obtain an A. baumannii WHG40137 bacterial solution. Finally, the lysin LysP53 prepared in the embodiment 2 is taken and mixed with the A. baumannii WHG40137 bacterial solution to make the final concentration of the lysin LysP53 to be 100 μg/mL. At the same time, a mixed solution including the same amount of the buffer and the above bacterial solution is prepared and used as the negative control. After incubation at 37° C. for 1 h, the number (CFU) of the bacteria in the solutions are counted by plating on agar plates.

Molecule | lytic activity against Gram-negative bacteria [1] | activity against Escherichia coli, LysP53 compared with P104 [2] | activity against Pseudomonas aeruginosa, LysP53 compared with P104 [3] | activity against Klebsiella pneumoniae, LysP53 compared with P104 [4] | lytic activity against Acinetobacter baumannii, LysP53 compared with P104 [5] | spectrum in lysing Gram-negative bacteria [6] | lytic activity against Acinetobacter baumannii WHG40137 [7] | concentration of Acinetobacter baumannii WHG40137 after incubation for 15 min ([7]; Tris-HCl buffer, 15 min) | concentration of Acinetobacter baumannii WHG40137 after incubation for 1 h ([7]; Tris-HCl buffer, 1 h) | lytic activity on mouse skin compared with minocycline [8] | lytic activity with increasing EDTA concentration [9] | lytic activity in pH range 5.0-6.5 versus pH range 7.0-8.0 ([10]; 37° C.) | concentration of the bacteria after incubation with LysP53 at pH 5.0-6.5 ([10]; pH 5.0-6.5, 37° C.) | lytic effect on Escherichia coli [11] | lytic effect on Pseudomonas aeruginosa [12] | lytic effect on Klebsiella pneumoniae [13] | lytic effect on a variety of Acinetobacter baumannii strains [14] | lytic activity in logarithmic phase versus stable phase [15]
P104: antibacterial peptide found in the genome of bacteriophage P53, amino acid sequence SEQ ID NO: 1, chemically synthesized (MTMTTKRIFEHMRPNLTDSQVQALYKLMEKGAD) | broad-spectrum lytic activity |  |  |  |  |  |  |  |  |  |  |  |  |  |  |  |  | 
B1 | broad-spectrum lytic activity | comparable activity | comparable activity | comparable activity | stronger lytic activity | broad spectrum | good lytic activity | greatly reduced | about 10 CFU/mL | higher lytic activity | gradually higher | better lytic activity | about 10 CFU/mL | good lytic effect | good lytic effect | good lytic effect | good lytic effect | higher lytic activity
